Measured values taken from patent US20240201167A1 (ALBERT EINSTEIN COLLEGE OF MEDICINE, published 2024).
Residue numbers refer to the chain shown, from its start. In names and notes the source's numbering stands. Values belong to the molecule of their own block, whether it stands above or below them.

Experiments:
[1] = biological target: human B7-1 (CD80), full length, expressed on HEK 293 cells (Homo sapiens) (UniProt P33681); test: cell-cell binding, flow cytometry; percent of the wild-type pair
[2] = biological target: T1, human B7-1 K127D on cells (Homo sapiens, UniProt P33681 35-280); test: as above
T1 construct: mCherry-tagged point mutant; also called LYS127 ASP
T1 chain: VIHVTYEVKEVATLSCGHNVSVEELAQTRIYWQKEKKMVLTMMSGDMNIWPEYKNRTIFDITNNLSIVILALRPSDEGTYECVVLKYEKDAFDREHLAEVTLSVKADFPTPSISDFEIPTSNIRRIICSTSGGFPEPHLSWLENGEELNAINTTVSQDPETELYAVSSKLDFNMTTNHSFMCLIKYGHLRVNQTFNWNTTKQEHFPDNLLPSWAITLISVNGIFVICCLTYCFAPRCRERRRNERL

[3] = biological target: T2, human B7-1 K139D on cells (Homo sapiens, UniProt P33681 35-280); test: as above
T2 construct: mCherry-tagged point mutant; also called LYS139ASP; LYS139 ASP
T2 chain: T1 chain with D93K, K105D

human B7-1 R63D on cells = biological target: T3, human B7-1 R63D on cells (Homo sapiens, UniProt P33681 35-280); test: as above
T3 construct: mCherry-tagged point mutant; also called ARG63 ASP
T3 chain: T1 chain with R29D, D93K

human B7-1 N82E on cells = biological target: T4, human B7-1 N82E on cells (Homo sapiens, UniProt P33681 35-280); test: as above
T4 construct: C-terminally fused to mCherry; also called ASN82 GLU
T4 chain: T1 chain with N48E, D93K

[4] = biological target: T5, human B7-1 K120D on cells (Homo sapiens, UniProt P33681 35-280); test: as above
T5 construct: mCherry-tagged point mutant; also called LYS120 ASP
T5 chain: T1 chain with K86D, D93K

p75NTR-mIgG2a = biological target: T6, p75NTR-mIgG2a (human, UniProt P08138 29-250); test: Fc fusion on cells expressing chimera B7-1-GFP, flow cytometry
T6 construct: Full-length ectodomain; also called p75-mIgG2A; recombinant p75 mIgG2a; not shown: C-terminal mIgG2a-His10 Fc domain
T6 sequence: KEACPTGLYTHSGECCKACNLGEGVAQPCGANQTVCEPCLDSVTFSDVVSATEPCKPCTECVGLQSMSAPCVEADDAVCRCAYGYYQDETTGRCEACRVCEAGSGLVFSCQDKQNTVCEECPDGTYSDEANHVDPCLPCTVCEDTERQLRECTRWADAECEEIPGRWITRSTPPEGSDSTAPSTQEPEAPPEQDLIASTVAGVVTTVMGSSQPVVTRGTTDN
Experimental: (§1) The arrow identifies the swapped exons. […] Binding was assessed using an anti mIgG2a-647 labeled antibody and flow cytometry.

mouse CTLA-4-mIgG2a = biological target: T7, mouse CTLA-4-mIgG2a (mouse, UniProt P09793 36-161); test: as above
T7 construct: not shown: mIgG2a Fc
T7 sequence (P09793 36-161): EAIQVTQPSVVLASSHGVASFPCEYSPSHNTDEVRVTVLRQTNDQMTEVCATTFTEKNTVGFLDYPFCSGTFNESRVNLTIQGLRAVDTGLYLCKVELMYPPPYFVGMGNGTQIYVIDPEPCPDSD
Experimental: as §1

[5] = biological target: T8, human p75 neurotrophin receptor, full length, expressed on HEK 293 cells (Homo sapiens, UniProt P08138 29-427); test: cell-cell screen, flow cytometry
T8 construct: Full-length human p75 with a cytosolic fluorescent tag (GFP); also called p75NTR; NGFR
T8 sequence: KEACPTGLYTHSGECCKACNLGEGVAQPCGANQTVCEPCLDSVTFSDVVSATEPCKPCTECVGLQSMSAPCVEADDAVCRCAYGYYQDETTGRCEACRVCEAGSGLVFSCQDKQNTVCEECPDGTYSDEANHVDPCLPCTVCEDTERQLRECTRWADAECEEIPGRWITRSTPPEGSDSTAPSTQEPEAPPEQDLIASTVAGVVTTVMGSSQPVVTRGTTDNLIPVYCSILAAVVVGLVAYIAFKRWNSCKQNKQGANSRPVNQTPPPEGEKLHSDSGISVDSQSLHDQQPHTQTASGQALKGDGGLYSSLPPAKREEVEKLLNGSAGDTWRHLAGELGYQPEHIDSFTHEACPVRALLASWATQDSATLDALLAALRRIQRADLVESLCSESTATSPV
Experimental: As illustrated, cells were transfected with expression cassettes expressing labeled receptors or labeled ligands, receptor-expressing cells were mixed with ligand-expressing cells and cell-to-cell binding was monitored by detecting the labels associated with the receptor and the ligand. […] Binding was detected using an anti-mIgG2A ab and flow cytometry. The binding curves were fit and the Bmax, EC50, and hill coefficient were calculated using the equation Y=Bmax*Xh/(Kdh+Xh).

[6] = biological target: T9, human B7-1 (CD80), full length, expressed on HEK 293 cells (Homo sapiens, UniProt P33681 35-280); test: cell-cell binding, flow cytometry; percent of the wild-type pair
T9 construct: also called hB7-1; B7-1-mCherry
T9 sequence: T1 chain with D93K

B1: chimeric human-mouse B7-1 protein expressed on HEK 293 cells (ligand)
chain: VIHVTKEVKEVATLSCGHNVSVEELAQTRIYWQKEKKMVLTMMSGDMNIWPEYKNRTIFDITNNLSIVILALRPSDEGTYECVVLKYEKDAFKREHLAEVTLSVKADFSTPNITESGNPSADTKRITCFASGGFPKPRFSWLENGRELPGINTTISQDPESELYTISSQLDFNTTRNHTIKCLIKYGDAHVSEDFTWEKPPEDPPDSKNTLVLFGAGFGAVITVVVIVVIIKCFCKHRSCFRRNEASRETNNSLTFGPEEALAEQTVFL
notes: also called human-mouse chimera B7-1-GFP; h:mB7-1
binding result (p75NTR-mIgG2a): binds
binding result (mouse CTLA-4-mIgG2a): binds

B3: human p75NTR F136K on cells (receptor)
chain: T8 sequence with F108K
notes: Fluorescent-tagged point mutant
percent binding [2]: 23%
percent binding [3]: 18%
percent binding (human B7-1 R63D on cells): 29%
percent binding [6]: 81%
percent binding (human B7-1 N82E on cells): 77%
percent binding [4]: 16%

B5: human p75NTR P150H on cells (receptor)
chain: T8 sequence with P122H
notes: as for B3
percent binding [2]: 11%
percent binding [3]: 14%
percent binding (human B7-1 R63D on cells): 13%
percent binding [6]: 38%
percent binding (human B7-1 N82E on cells): 10%
percent binding [4]: 16%

B7: human p75NTR L165K on cells (receptor)
chain: T8 sequence with L137K
notes: Fluorescent-tagged point mutant; also called LEU165K*
percent binding [2]: 19%
percent binding [3]: 19%
percent binding (human B7-1 R63D on cells): 18%
percent binding [6]: 83%
percent binding (human B7-1 N82E on cells): 11%
percent binding [4]: 20%

B8: human p75NTR L165H on cells (receptor)
chain: T8 sequence with L137H
notes: Fluorescent-tagged point mutant; also called LEU165H*
percent binding [2]: 25%
percent binding [3]: 25%
percent binding (human B7-1 R63D on cells): 26%
percent binding [6]: 64%
percent binding (human B7-1 N82E on cells): 15%
percent binding [4]: 19%

B9: human p75NTR F136H on cells (receptor)
chain: T8 sequence with F108H
notes: as for B3
percent binding [2]: 16%
percent binding [3]: 13%
percent binding (human B7-1 R63D on cells): 25%
percent binding [6]: 90%
percent binding (human B7-1 N82E on cells): 66%
percent binding [4]: 15%

Next, values leading:

percent binding [1]: 66%
percent binding [2]: 26%
percent binding [3]: 26%
percent binding (human B7-1 R63D on cells): 8%
percent binding (human B7-1 N82E on cells): 25%
percent binding [4]: 12%
Molecule: human p75NTR mutant printed ARG166H on cells (from UniProt P08138 29-427) (receptor)

binding result [5]: no binding
B2: B7-2 expressed on cells (ligand, human, UniProt P42081 24-329, looked up)
chain: APLKIQAYFNETADLPCQFANSQNQSLSELVVFWQDQENLVLNEVYLGKEKFDSVHSKYMGRTSFDSDSWTLRLHNLQIKDKGLYQCIIHHKKPTGMIRIHQMNSELSVLANFSQPEIVPISNITENVYINLTCSSIHGYPEPKKMSVLLRTKNSTIEYDGVMQKSQDNVTELYDVSISLSVSFPDVTSNMTIFCILETDKTRLLSSPFSIELEDPQPPPDHIPWITAVLPTVIICVMVFCLILWKWKKKKRPRNSYKCGTNTMEREESEQTKKREKIHIPERSDEAQRVFKSSKTSSCDKSDTCF
notes: whole, on cells

binding result [5]: no binding
B4: ICOSL expressed on cells (ligand, human, UniProt O75144 19-302, looked up)
chain: DTQEKEVRAMVGSDVELSCACPEGSRFDLNDVYVYWQTSESKTVVTYHIPQNSSLENVDSRYRNRALMSPAGMLRGDFSLRLFNVTPQDEQKFHCLVLSQSLGFQEVLSVEVTLHVAANFSVPVVSAPHSPSQDELTFTCTSINGYPRPNVYWINKTDNSLLDQALQNDTVFLNMRGLYDVVSVLRIARTPSVNIGCCIENVLLQQNLTVGSQTGNDIGERDKITENPVSTGEKNAATWSILAVLCLLVVVAVAIGWVCRDRCLQHSYAGAWAVSPETELTGHV
notes: whole, on cells

percent binding [2]: 15%
percent binding [3]: 11%
percent binding (human B7-1 R63D on cells): 14%
percent binding [6]: 69%
percent binding (human B7-1 N82E on cells): 13%
percent binding [4]: 17%
B6: human p75NTR P150K on cells (receptor)
chain: T8 sequence with P122K
notes: as for B3
